Experiments:
[1] = system: tumours and other background tissues; assay: Gamma-recording after technetium-99m labelled dextran derivative: accumulation into tumours and background tissues; settings: patient, 20 mCi technetium-99m labelled dextran derivative
Description: The Effect of Different Dextran Conjugates on the Tumour Accumulation and Background-activity
After the administration of 20 mCi of technetium-99 m, labelled dextran derivative to the patient a gamma-recording was carried out on the patient. From the image, the accumulation of the labelled compound into the tumours and to the other background tissues was evaluated. The compounds of the state of the art were prepared as described in the publication Holmberg et al., Antibody Immunoconj. Radiopharm 7: 253-257, 1994.

[2] = Holmberg et al. 1994; cited from earlier work

Row | Substance | Background (accumulation of the labelled compound into other background tissues) [1] | Tumour (accumulation of the labelled compound into the tumours) [1] | half-life in blood T(1)½ [2] | half-life in blood T(2)½ [2]
1 | Dextran 10 000 somatostatin-^99mTc: State of the art conjugate prepared as in Holmberg et al. 1994; dextran 10 000 somatostatin labelled with technetium-99m | +++ | + | 4 h | 8 h
2 | Dextran 10 000 somatostatin-taurine-^99mTc: Technetium-99m labelled dextran 10 000 somatostatin taurine conjugate, listed under The Invention | ++ | + |  | 
3 | Dextran 40 000 somatostatin ^99mTc: State of the art dextran 40 000 somatostatin conjugate labelled with technetium-99m, without taurine | ++ | ++ |  | 
4 | Dextran 40 000 somatostatin-taurine ^99mTc: Dextran 40 000-somatostatin-taurine labelled with technetium-99m using SnCl and sodium pertechnetate | + |  |  | 
